Measurements reported in the supplement of paper PMC10724198.
± gives the standard deviation of the averaged measurements.

test system: Saccharomyces cerevisiae; assay: protein stability index of tFT-peptide fusion (C-terminal peptide) (PSI (0-1 scale)); higher = more stable (slower turnover); details: genetic background: das1 deletion; temperature: 30 C
Description: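 MPS profiling in S. cerevisiae of the tFT-X12 degron library: putative degron peptides plus stable controls, 12 aa, fused to the C-terminus of a sfGFP-mCherry timer. Cells are FACS-sorted into 8 mCherry/sfGFP bins and deep-sequenced. PSI runs from 0 (unstable) to 1 (stable). Backgrounds are wild type, das1Δ and doa10Δ at 30 °C, and wild type, das1Δ, cdc34-1 and cdc53-1 at 37 °C; 2-3 technical replicates each.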
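Also: PSI is a weighted mean of sequencing reads over stability bins, variants kept only with over 10 reads, mCherry proximal and sfGFP distal, peptide attached via GGGS linker.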

Compared with APLFPPPPARSL, ARRFLVRRFILF is lower in protein stability index: 0.661 ± 0.014 for the first, 0.586 ± 0.0066 for the second.

First: ASHLGLGCLVVC
Second: AVRLPFPLLVHL
The protein stability index of the first is higher: 0.426 ± 0.018 for the first, 0.283 ± 0.031 for the second.

Compared with AVVCSRLVLFCL, AYSVIPSLALLP is higher in protein stability index: 0.53 ± 0.016 for the first, 0.631 ± 0.024 for the second.

First: CALLLLSVRAGQ
Second: CCSRFLMLRILV
The protein stability index of the first is higher: 0.432 ± 0.04 for the first, 0.287 ± 0.041 for the second.

Going from CFFFCSLFLSFL to CFFMVGFVFYFV, the protein stability index falls from 0.436 ± 0.022 to 0.291 ± 0.039.

Compared with CFFSLLLLIFSV, CFLLVSLGILCW is lower in protein stability index: 0.311 ± 0.041 for the first, 0.109 ± 0.036 for the second.

Compared with CFPFYVSCLLVL, CFTLSLCLAFFF is higher in protein stability index: 0.281 ± 0.029 for the first, 0.403 ± 0.03 for the second.

Compared with CGLLSALSCLVF, CIVFVYCLFSCP is lower in protein stability index: 0.442 ± 0.019 for the first, 0.213 ± 0.024 for the second.

Compared with CKRWGVVSYVFV, CLCFFLICFILF is lower in protein stability index: 0.464 ± 0.025 for the first, 0.235 ± 0.019 for the second.

Going from CLCFFMSILWWV to CLCVLVSFFFGL, the protein stability index falls from 0.434 ± 0.035 to 0.35 ± 0.024.

Compared with CLFHQFITLLVN, CLFLNCRFYMFL is higher in protein stability index: 0.222 ± 0.026 for the first, 0.808 ± 0.04 for the second.

First: CLFSPFCFILFC
Second: CLTGWFGIFSAP
The protein stability index of the first is lower: 0.0898 ± 0.0084 for the first, 0.678 ± 0.016 for the second.

Compared with CMIACYALLRLL, CPALYMPPPVLV is lower in protein stability index: 0.346 ± 0.036 for the first, 0.191 ± 0.026 for the second.

Going from CPPPPPSLLLLC to CRLCVFGVWFCG, the protein stability index falls from 0.591 ± 0.012 to 0.443 ± 0.018.

Going from CSPAFRPIVFVL to CSVPLGVFAIVV, the protein stability index rises from 0.301 ± 0.026 to 0.382 ± 0.028.

First: CSYPTLSMYSTT
Second: CTFFCICVFFLL
The protein stability index of the first is higher: 0.655 ± 0.013 for the first, 0.339 ± 0.027 for the second.

Compared with CTLVVGLFVLVV, FFCRWGSTVTLL is higher in protein stability index: 0.209 ± 0.034 for the first, 0.557 ± 0.014 for the second.

Going from GAVRGWGWVSFV to GFYQSGGLVVVV, the protein stability index falls from 0.595 ± 0.025 to 0.501 ± 0.03.

Compared with GGGGGGGDVLVW, LPLPPPGSPPPL is higher in protein stability index: 0.265 ± 0.037 for the first, 0.668 ± 0.021 for the second.

First: PSLVFLPPPPPR
Second: RDTTQRRRKTAA
The protein stability index of the first is higher: 0.677 ± 0.0098 for the first, 0.6608 ± 0.0048 for the second.

Going from RWRLWGGWWVVG to TGPVFVSFRLLH, the protein stability index rises from 0.579 ± 0.022 to 0.67 ± 0.066.

TLDCKFGRGGIG and WLFAILPSRLIA are within error of each other in protein stability index: 0.332 ± 0.0069 for the first, 0.344 ± 0.035 for the second.

same assay, conditions: genetic background: das1 deletion; temperature: 37 C

ACFLFPSHLLIS and AFCGRRGHQFYN are within error of each other in protein stability index: 0.699 ± 0.021 for the first, 0.746 ± 0.037 for the second.

Going from AFRFFWFFFFTS to AFSISPFRLRMV, the protein stability index rises from 0.603 ± 0.035 to 0.746 ± 0.03.

AFWLFSGIARLA and AGESLRAIAVLY are within error of each other in protein stability index: 0.642 ± 0.024 for the first, 0.6605 ± 0.004 for the second.

Going from AGLTLLWPLCLL to AGTLLLGYGILA, the protein stability index rises from 0.394 ± 0.013 to 0.5107 ± 0.00054.

Going from AGVRCPLFWLVC to AHPTLILTNKIA, the protein stability index rises from 0.632 ± 0.013 to 0.712 ± 0.044.

Compared with ALLIYFLCRCIP, APLFPPPPARSL is higher in protein stability index: 0.522 ± 0.016 for the first, 0.704 ± 0.011 for the second.

Going from ARRFLVRRFILF to ASHLGLGCLVVC, the protein stability index falls from 0.683 ± 0.026 to 0.604 ± 0.015.

Going from AVRLPFPLLVHL to AVVCSRLVLFCL, the protein stability index rises from 0.386 ± 0.0046 to 0.6322 ± 0.0018.

Going from AYSVIPSLALLP to CALLLLSVRAGQ, the protein stability index falls from 0.731 ± 0.0022 to 0.5912 ± 0.0029.

Compared with CCSRFLMLRILV, CFFFCSLFLSFL is higher in protein stability index: 0.438 ± 0.026 for the first, 0.498 ± 0.01 for the second.

Going from CFFMVGFVFYFV to CFFSLLLLIFSV, the protein stability index falls from 0.505 ± 0.017 to 0.4838 ± 0.0022.

Compared with CFLLVSLGILCW, CFPFYVSCLLVL is higher in protein stability index: 0.121 ± 0.003 for the first, 0.405 ± 0.019 for the second.

Compared with CFTLSLCLAFFF, CGLLSALSCLVF is higher in protein stability index: 0.433 ± 0.0072 for the first, 0.5533 ± 0.0036 for the second.

Going from CIVFVYCLFSCP to CKRWGVVSYVFV, the protein stability index rises from 0.406 ± 0.041 to 0.655 ± 0.0067.

Compared with CLCFFLICFILF, CLCFFMSILWWV is higher in protein stability index: 0.391 ± 0.027 for the first, 0.5222 ± 0.0016 for the second.

Compared with CLCVLVSFFFGL, CLFHQFITLLVN is lower in protein stability index: 0.5006 ± 0.0024 for the first, 0.2692 ± 0.0019 for the second.

Going from CLFLNCRFYMFL to CLFSPFCFILFC, the protein stability index falls from 0.89 ± 0.024 to 0.11 ± 0.012.

Compared with CLTGWFGIFSAP, CMIACYALLRLL is lower in protein stability index: 0.763 ± 0.02 for the first, 0.477 ± 0.0079 for the second.

Going from CPALYMPPPVLV to CPPPPPSLLLLC, the protein stability index rises from 0.238 ± 0.01 to 0.666 ± 0.011.

Compared with CRLCVFGVWFCG, CSPAFRPIVFVL is lower in protein stability index: 0.5751 ± 0.0034 for the first, 0.407 ± 0.013 for the second.

First: CSVPLGVFAIVV
Second: CSYPTLSMYSTT
The protein stability index of the first is lower: 0.514 ± 0.0019 for the first, 0.718 ± 0.017 for the second.

First: CTFFCICVFFLL
Second: CTLVVGLFVLVV
The protein stability index of the first is higher: 0.463 ± 0.0064 for the first, 0.375 ± 0.024 for the second.

Going from FFCRWGSTVTLL to GAVRGWGWVSFV, the protein stability index rises from 0.647 ± 0.037 to 0.71792 ± 4.5e-05.

Going from GFYQSGGLVVVV to GGGGGGGDVLVW, the protein stability index falls from 0.663 ± 0.0058 to 0.426 ± 0.0099.

Going from LPLPPPGSPPPL to PSLVFLPPPPPR, the protein stability index rises from 0.726 ± 0.0077 to 0.7475 ± 0.0016.

Going from RDTTQRRRKTAA to RWRLWGGWWVVG, the protein stability index rises from 0.6583 ± 0.005 to 0.718 ± 0.017.

Going from TGPVFVSFRLLH to TLDCKFGRGGIG, the protein stability index falls from 0.737 ± 0.024 to 0.401 ± 0.017.

Work on WLFAILPSRLIA yielded a protein stability index of 0.488 ± 0.0068.

same assay, conditions: genetic background: doa10 deletion; temperature: 30 C

ACFLFPSHLLIS and AFCGRRGHQFYN are within error of each other in protein stability index: 0.165 ± 0.023 for the first, 0.144 ± 0.0093 for the second.

Compared with AFRFFWFFFFTS, AFSISPFRLRMV is lower in protein stability index: 0.446 ± 0.0062 for the first, 0.249 ± 0.0032 for the second.

First: AFWLFSGIARLA
Second: AGESLRAIAVLY
The protein stability index of the first is lower: 0.221 ± 0.014 for the first, 0.258 ± 0.016 for the second.

Going from AGLTLLWPLCLL to AGTLLLGYGILA, the protein stability index falls from 0.591 ± 0.01 to 0.309 ± 0.017.

Going from AGVRCPLFWLVC to AHPTLILTNKIA, the protein stability index falls from 0.131 ± 0.012 to 0.0637 ± 0.025.

Compared with ALLIYFLCRCIP, APLFPPPPARSL is higher in protein stability index: 0.301 ± 0.015 for the first, 0.692 ± 0.017 for the second.

Compared with ARRFLVRRFILF, ASHLGLGCLVVC is higher in protein stability index: 0.187 ± 0.018 for the first, 0.389 ± 0.028 for the second.

AVRLPFPLLVHL and AVVCSRLVLFCL are within error of each other in protein stability index: 0.427 ± 0.016 for the first, 0.433 ± 0.018 for the second.

Going from AYSVIPSLALLP to CALLLLSVRAGQ, the protein stability index falls from 0.646 ± 0.018 to 0.415 ± 0.032.

First: CCSRFLMLRILV
Second: CFFFCSLFLSFL
The protein stability index of the first is lower: 0.118 ± 0.0037 for the first, 0.4065 ± 0.001 for the second.

First: CFFMVGFVFYFV
Second: CFFSLLLLIFSV
The protein stability index of the first is lower: 0.288 ± 0.014 for the first, 0.3486 ± 0.0032 for the second.

Sequence CFLLVSLGILCW has a protein stability index of 0.0685 ± 0.035.
